In patent publication US20180066242A1:

Biological target: dCas9(C)-FKBP-2×NLS-VP64 (split-4, N863A) (Streptococcus pyogenes)
Experiment: cell-based or functional assay

dCas9(N)-FRB-2×NES (split-4, D10A) (from UniProt Q99ZW2 1-535; P42345 2021-2113; Q05397 518-525)
ASCL1 mRNA by qPCR, +rapamycin/-rapamycin ratio: 77 | IL1RN mRNA by qPCR, +rapamycin/-rapamycin ratio: 649 | MYOD1 mRNA by qPCR, +rapamycin/-rapamycin ratio: 29
